Data reported in patent US20090004206A1 (ALETHIA BIOTHERAPEUTICS, published 2009).

Molecular target: T1, Flag-tagged mouse v-ATPase a4 subunit fragment (amino acids 1-388) (mouse, UniProt Q920R6 1-388)
T1 construct: range 1-388; Expressed in 293FT cells from pCMX-Flag/v-ATPase-a4 and used as cell lysate; also called Flag-tagged a4; not shown: Flag tag of vector pCMX-Flag
Assay: GST pull-down from 293FT lysate, anti-Flag Western blot
From the text: ID. NO. 89 (d2) (SEQ ID NO.:154) was cloned into the prokaryotic expression vector, pGEX-2T (Pharmacia, GE Healthcare), expressed as a GST fusion protein in E. coli and purified with glutathione beads. In parallel, cDNA fragments of mouse v-ATPase-a3 (amino acids 1-385) and v-ATPase a4 (amino acids 1-388) were cloned into the eukaryotic expression vector, pCMX-Flag in order to express a Flag-tagged a3 subunit or a4 subunit in mammalian cells. The pCMX-Flag/v-ATPase-a3 and pCMX-Flag/v-ATPase-a4 recombinant plasmids were transfected in 293FT cells and cell lysates were generated in which, the v-ATPase-a3 and v-ATPase-a4 FLAG-tagged polypeptides were readily detected with an anti-Flag antibody (FIG. 21B, II, upper panel).
In order to measure the interaction between d2 (SEQ. ID. NO. 89) and a3 or a4, equal amounts of 293FT lysates containing either Flag-tagged a3 or a4 were incubated with purified GST or GST-d2 at 4° C. for 90 minutes under mild agitation. After washing, the protein mixes were separated on a SDS-PAGE and transferred to PVDF membrane. […] Clearly, only the a3 fragment could be detected in the GST-d2 reactions compared to the GST reactions indicating a specific interaction between d2 and a3 (FIG. 21B, I-a3, upper panel) but not between d2 and a4 (FIG. 21B, I-a4, upper panel). […]

T1 sequence (Q920R6 1-388): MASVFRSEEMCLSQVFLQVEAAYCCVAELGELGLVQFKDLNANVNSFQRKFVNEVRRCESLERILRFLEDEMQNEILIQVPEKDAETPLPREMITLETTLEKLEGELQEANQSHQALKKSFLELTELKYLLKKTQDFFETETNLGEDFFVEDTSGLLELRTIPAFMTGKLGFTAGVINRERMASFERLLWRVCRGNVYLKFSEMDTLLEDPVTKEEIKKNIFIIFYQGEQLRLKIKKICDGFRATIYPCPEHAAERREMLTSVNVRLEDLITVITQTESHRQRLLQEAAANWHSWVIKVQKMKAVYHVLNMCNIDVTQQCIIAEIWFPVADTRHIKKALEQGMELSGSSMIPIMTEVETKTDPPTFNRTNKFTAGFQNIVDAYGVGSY

B1: GST-d2 (GST fusion protein of the human v-ATPase d2 subunit, polypeptide SEQ ID NO.:154 encoded by SEQ. ID. NO. 89) (other)
chain: not shown
notes: also called AB0179 human orthologue; not shown: glutathione S-transferase (GST) tag of the prokaryotic expression vector pGEX-2T (Pharmacia, GE Healthcare)
- binding result: no binding
